In US20120165265A1, “Calcium Signaling Modulators Involving STIM and ORAI Proteins” (priority 2009, published 2012):

Molecular target: eGFP-myc-Orai1 (UniProt Q96D31)
Experiment: cell-based or functional assay

Chain of eGFP-myc-Orai1 (Q96D31 whole entry): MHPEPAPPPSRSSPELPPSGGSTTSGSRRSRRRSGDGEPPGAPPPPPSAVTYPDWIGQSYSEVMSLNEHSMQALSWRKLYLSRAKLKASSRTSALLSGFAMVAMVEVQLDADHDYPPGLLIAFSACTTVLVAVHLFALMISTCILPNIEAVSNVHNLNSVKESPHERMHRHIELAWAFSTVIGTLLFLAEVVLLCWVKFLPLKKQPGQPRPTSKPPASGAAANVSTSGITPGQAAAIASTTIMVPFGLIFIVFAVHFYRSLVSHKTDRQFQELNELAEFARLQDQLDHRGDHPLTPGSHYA

- diffusion coefficient fitted to FRAP of a single cell expressing eGFP-Orai1 with CAD: 0.026 µm^2/s
- effective diffusion coefficient (D) of GFP-Orai1 co-expressed with CAD, FRAP in HEK 293 cells: 0.036 µm^2/s
- mobile fraction of GFP-Orai1 co-expressed with CAD, FRAP: 87%
- slowing of Orai1 diffusion by CAD, FRAP: 2 fold
Substance: mCh-CAD (from UniProt Q13586 342-448)
